Data published in doi:10.1101/2023.02.27.530186 (bioRxiv, 2023).

Experiments:
[1] = biological target: T3 SAMase E68Q/Q94A, C-terminally His6-tagged (bacteriophage T3) (UniProt P07693); test: mass photometry
[2] = biological target: T3 SAMase E68Q/Q94A, C-terminally His6-tagged (bacteriophage T3) (UniProt P07693); test: SEC-SAXS
[3] = biological target: T3 SAMase, wild type, C-terminally His6-tagged (bacteriophage T3) (UniProt P07693); test: SEC-SAXS
[4] = biological target: T3 SAMase, wild type, C-terminally His6-tagged (bacteriophage T3) (UniProt P07693); test: cryo-EM structure
cryo-EM structure = biological target: the molecule itself; test: cryo-EM structure

B1: MetK, SAM synthase (methionine adenosyltransferase) of E. coli, endogenous (enzyme, UniProt P0A817 1-384, looked up)
chain: MAKHLFTSESVSEGHPDKIADQISDAVLDAILEQDPKARVACETYVKTGMVLVGGEITTSAWVDIEEITRNTVREIGYVHSDMGFDANSCAVLSAIGKQSPDINQGVDRADPLEQGAGDQGLMFGYATNETDVLMPAPITYAHRLVQRQAEVRKNGTLPWLRPDAKSQVTFQYDDGKIVGIDAVVLSTQHSEEIDQKSLQEAVMEEIIKPILPAEWLTSATKFFINPTGRFVIGGPMGDCGLTGRKIIVDTYGGMARHGGGAFSGKDPSKVDRSAAYAARYVAKNIVAAGLADRCEIQVSYAIGVAEPTSIMVETFGTEKVPSEQLTLLVREFFDLRPYGLIQMLDLLHPIYKETAAYGHFGREHFPWEKTDKAQLLRDAAGLK
[1]
  stoichiometry N (SAMase per MetK subunit (4:4)): 1
[2]
  stoichiometry N (SAMase per MetK subunit (4:4)): 1
[3]
  stoichiometry N (SAMase per MetK subunit (4:4)): 1
[4]
  stoichiometry N (SAMase per MetK subunit (4:4)): 1
cryo-EM structure
  stoichiometry N: 4
